{
  "source": "the nanobody polyreactivity screen of Harvey et al. (2022)",
  "data": [
    {"assay": "yeast display, Sf9 membrane polyspecificity reagent, FACS + sequencing; frameworks hold sequencing errors", "procedure,_shortened": "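Nanobodies came from a synthetic yeast display library in Saccharomyces cerevisiae BJ5465, induced with galactose for 36–48 hours and stained for 1 hour at 4 °C with 10% biotinylated, detergent-solubilized Sf9 membrane reagent. Cells were enriched on streptavidin microbeads and then FACS-sorted, with low and high (top ~1%) gates set on anti-HA fluorescence for expression and streptavidin fluorescence for reagent binding. Each polyreactivity label reflects the gate a clone came from. Genes were amplified by colony PCR, sequenced by MiSeq 2 × 250 and filtered by CDR length.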", "values": [
      {"sequence": "QVQLVESGGGLVQAGGSLRLSCAASGRIFQGNAMGWYRQAPGKERELVAAITSSGSSTYYADSVKGRFTISRDNAKNTVYLQMNSLKPEDTAVYYCAARATGPIMYYWGQGTQVTVSS", "polyreactivity (PSR sort gate)": "high polyreactivity"},
      {"sequence": "QVQLVESGGGLVQAGGSLRLSCAASGRIYKRNAMGWYRQAPGKERELVAAITGNVGSTYYADSVKGRFTISRDNAKNTVYLQMNSLKPEDTAVYYCAAETYPVWGVAFYYWGQGTQVTVSS", "polyreactivity (PSR sort gate)": "high polyreactivity"},
      {"sequence": "QVQLVESGGGLVQAGGSLRLICAASGLTFSRYAMGWYRQAPGKERELVAAITWSGSSTYYADSVKGRFTISRDKAKNTVYLQMNSLKPEDTAVYYCAARYGYSRGPYYRSDYWGQGTQVTVSS", "polyreactivity (PSR sort gate)": "high polyreactivity"},
      {"sequence": "QVQLVESGGGLVQAGGSLRLSCAASGRTFRPYAMGWYRQAPGKERELVAAISYRGGITNYADSVKGRFTISRDNAKNTVYLQMNSLKPEDTAVYYCNRYAIWVSRYSDLDYWGQGTQVTVSS", "polyreactivity (PSR sort gate)": "low polyreactivity"},
      {"sequence": "QVQLVESGRGLVQAGGSLRLSCAASGGTFYIYAMGWYRQAPGKERELVAVISISDASTYYADSVKGRFTFSRDNAKNTVYLQMNSLKPEDTAVYYCNAKSNPAGSYPSEHSGYDSWGQGTQVTVSS", "polyreactivity (PSR sort gate)": "low polyreactivity"},
      {"sequence": "QVQLVESGVGLVQAGGSLRLSCADSGFTFFHYARGWYIQAPGKERELVAAIDYSAGSTYYADSVKGRFTISRDNAKNTVYLQMNSLKPEDTAVYYCAADARTSRGRRYYYWGQGTQVTVSS", "polyreactivity (PSR sort gate)": "low polyreactivity"},
      {"sequence": "QVQLVESGGGLVQAGGSLRLSCASSGIIFLTYAMGWYRQAPGKERELVAAINSTGSTNYADSVKGRFTISRDNAKYSVYLQMNSLKPDDTAVYYCAAEGLPYVRVFDFVSRYDYWGQGTQVTVSS", "polyreactivity (PSR sort gate)": "low polyreactivity"},
      {"sequence": "QVQLVESVGGLVQAGGSLRLSCAASGNTFKYYAMGWYRQAPGKERELVAGITWTGGRTNYADSVKGRFTISRDNAKNTVYLQMNSLKPEDTAVYYCAADYWWYTGYDYWGQGTQVTVSS", "polyreactivity (PSR sort gate)": "high polyreactivity"},
      {"sequence": "QVQLVESGGGLVQAGGSLRLSCAASGFTFYDYAMGWYRQAPGKQREFVAAITWSGSSTYYADSVKGRFTISRDNAMNTVYLQMKSMKPEDTEVYYCAVGPFRRRGHYPTYYRYGYWGQGTEVTVSS", "polyreactivity (PSR sort gate)": "high polyreactivity"},
      {"sequence": "QVQLVESGGGIVQAGGSLRLSCAASGRIFWWYAMGMYRQAPGKERELVAVIDDSGGITYYADSVKGRFTISRDNAKNTVYLQMNSLKPEDTAVYYCARNVNAQKVLGGFDSWGQGTQVTVSS", "polyreactivity (PSR sort gate)": "low polyreactivity"},
      {"sequence": "QVQLVESGGGLVQAGGSLRLSCAASGRTFKSYAMGWYRQAPWKESELVAAISYSGGSTYYADSVKGRVTISRDNAKNTVYLQMNSLKPEDTAVYYCNVVSKVIRGLSGDGYWGVGTQVTVSS", "polyreactivity (PSR sort gate)": "high polyreactivity"},
      {"sequence": "QVQLVESGGVLVQAGGSLRLSCAASGRIFGSYTMGWYRQAPGKERELVAGISRRGGSTYYADSVKGRFTISRDNAKNTVYLQMNSLNPEDTAVYYCAAVSSVFSVRYDYWGQGTQVTVSS", "polyreactivity (PSR sort gate)": "high polyreactivity"},
      {"sequence": "QVQLVESGGGLVQAGGSLRLSCAASGRTFLTNAMGWYRQAAGKERELVAAITSSGGNTYYADSVKGRFTISRDNAKNTVYLQMNSLKPEDTAVYYCAAPGYVWYGGRWVYRYYYWGQGTQVTVSS", "polyreactivity (PSR sort gate)": "high polyreactivity"},
      {"sequence": "QVQLVESGGGLVQAGGSLRLSCAASGLTFTSYPMVWYRQAPGKERELVAAIDWSGGRTYYADSVKGRFTISRDNAKNTVYLQMNSLKPEDTAVYYCAAYSRNRALRFNYWGQGTQVTVSS", "polyreactivity (PSR sort gate)": "high polyreactivity"},
      {"sequence": "QVQLVESGGCLVQAGGSLRLSCAASGGIFGKYAMGWYRQAPGKESELVAAITWNGVSTYYADSVKGRFTISRDNAKNTVYLQMNSLKPEDTAVYYCAKASLPYRPDSTPDRRYDYWGQGTQVTVSS", "polyreactivity (PSR sort gate)": "high polyreactivity"},
      {"sequence": "QVQLVESGGGLVQAGGSLRLSCAASGRTFYVYAMGWYRQAPGKERELVAAITFSGGSTYYADSVKGRFTISRDNAKNPVYLQMNSLKPEDTAVYYCNRRSYVPDRFRHDSSVIYDYWGQGTQVTVSS", "polyreactivity (PSR sort gate)": "low polyreactivity"},
      {"sequence": "QVQLVESGGGLVQAGGSLRLSCAASGRTFETNAMGWYRQAPGKERELVAAISRSGGSTRYADSVKGRFTISRDNAKNTVYLQMNSLKPEDTAVYYCAAETWYRGYKFDYWGQGTQVTVSS", "polyreactivity (PSR sort gate)": "high polyreactivity"},
      {"sequence": "QVQLVESGGGLVQAGGSLRLSCAVSGRIFRRNVMGWYRQAPGKERELVAGSSYSGDSTYYADSVKGRFTISRDNAKNTVYLQMNRLKPEDTAVYYCAAALAHYRGMYYWGQGTQVTVSS", "polyreactivity (PSR sort gate)": "high polyreactivity"},
      {"sequence": "QVQLVESGGGLFQARGSLRLSCAASGRTFWYYTMGWYRPAPGKERELVASITYRGGSTYYADSVKGRFTISRDNAKITVYLQMNSLKREDTALYYCYARYKRYSYDYWGQGTQVTVSS", "polyreactivity (PSR sort gate)": "high polyreactivity"},
      {"sequence": "QVQLVESGGGLVQAGGSLRLSCAASGSIFTGYDMGWYRQAPGKERELVAVISTAGRTYYADSVKGRFTISRDNAKNTVYLQMNSLKPEDTAVYYCAKRSYSKDQPRYGYWGQGTQVTVSS", "polyreactivity (PSR sort gate)": "low polyreactivity"},
      {"sequence": "QVQLVESGGGLVQAVGSLRLSSAASGSIFYVYAMGWYRQAPGKERELVAAMTNYADSVKGRFTISRDNAKNTVYLQMNSLKPEDTAVYYCAADWWRVEMDYWGQGTQVTVSS", "polyreactivity (PSR sort gate)": "low polyreactivity"},
      {"sequence": "QVQLVESGGGLVQAGGSLRLSCAASGFTFKLYAMGWYRQAPGKERELVAVITTSGGRTYYADSVKGRFTISRDNANNTVYLQMTSLKPEDTAVYYCAKVVFVRVAPGYYWGQGTQVTVSS", "polyreactivity (PSR sort gate)": "high polyreactivity"},
      {"sequence": "QVQLVESGGGLVQAGGSLRLSCAASGSTFGYNAMGWDRQAPGKERELVAAITGNDGTTYYADSVKGRFTISRDNAKNSVYLQMNSLKPEDSAVYYCAARPYLGYIGYEYWGQGTQVTVSS", "polyreactivity (PSR sort gate)": "low polyreactivity"},
      {"sequence": "QVQLVESGGGLVQAGGSLRSSCAASGGTFYGYAMGWYRQAPGKERELVAAISFSGGRTYYADSVKGSFTISRDNAKNTVYLQMNSLKPEDTAVYYCAALRRYPRPNIYGYWGQGTQVTVSS", "polyreactivity (PSR sort gate)": "low polyreactivity"},
      {"sequence": "QVQLVESGGGLVQAGGSLRLSSAASGRIFKYYVMGWYRQAPGKEREFVAAISGRGGRTYYADSVKGRFTISRDNAKNTVYLQMNSLKPEDTAVYYCATERQDRGPLGYNYWGQGTQVTVSS", "polyreactivity (PSR sort gate)": "high polyreactivity"},
      {"sequence": "QVQLVESGGGLVQAGGSLRLSCAASGRIFAVYAMGWYRQAPGKEREFVAAISYSGGITYYADSVKGRFTISRDNAKNTVYLQMNSLKPEDTAVYYCNAYYYFWGQGTQVTVSS", "polyreactivity (PSR sort gate)": "low polyreactivity"},
      {"sequence": "QVQVVESGGGLVQPGGSLRVSCAASGSTFIAYVKGWSRQAPGKEWELVAAISWSGSNTYYADSVKGRFTISRDNAKITVYFQMNCLKPEDTAVYYCNARSFAPDKKYDYWGQGTQVTVSS", "polyreactivity (PSR sort gate)": "low polyreactivity"},
      {"sequence": "QVQLVESGGGLVQAGGSLRLSCAASGRIFGPYAMGWSRQAPGKERELVASISYSGGSTYYADSVKGRFTISRDNAKNTVYLQMNSLKPEDTAVYYCNALSRTAWSYYLYPSTPFDYWGQGTQVTVSS", "polyreactivity (PSR sort gate)": "low polyreactivity"},
      {"sequence": "QVQLVESGGGLVQAGGSLRLSCAASGRIIANYAMGWYRQAPGKEREVVAGISSGGSTNYADSVKGRFTISRDNAKNPVYLQMNSLKPEDTAVYYCAKDPAYRVSKYDYWGQGTQVTVSS", "polyreactivity (PSR sort gate)": "low polyreactivity"},
      {"sequence": "QVQLVESGGGLVQAGGSLRLSCAASGSTLQYYDMGWYRQAPGKERELVAAITWSTGTTYYADSVKGRFTISRDNAKNTVYLQMNSLKPEDTAVYYCAVDSYYRATYTNRYDYWGQGTQVTVSS", "polyreactivity (PSR sort gate)": "low polyreactivity"},
      {"sequence": "QVQLVESGGGLVQAGGSLRLSCAASGSIFGRYAMGWYRQAPGKERELVAAITRSGVSTYYADSVKGRFTISRDNAKNTVYLQMNSLKPEDTAVYYCNAYYPIRSSPNGYYYWGQGTQVTVSS", "polyreactivity (PSR sort gate)": "high polyreactivity"}
    ]}
  ]
}
